± gives the standard deviation of the averaged measurements.
Tested on: ATP
Test: switch fluorescence ratio, 500 uM ATP over buffer (Cy3 cluster intensity, sum of 5 cycles each) (fold (ratio)); higher = stronger signal-on switching upon ATP binding; sequences stand for … in TCGTCGGCAGCGTCAGATGTGTATAAGAGACAGTTTTTTTTTTTTTTTTTTTTTTTTT…TC
Settings: aptamer strand: ATP DNA aptamer (quencher-CACCTGGGGGAGTATTGCGGAGGAAGG + anchor), 100 nM annealed; ATP concentration: 500 uM
Procedure, shortened: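 Cy3-labelled switching-strand clusters on a modified Illumina MiSeq flow-cell were annealed to 100 nM quencher-labelled ATP aptamer and imaged first in selection buffer, then after 15 min with 500 uM ATP at 22 °C. NaOH stripping and re-annealing separated each of five buffer/ATP cycles, and clusters outside 100-1000 RFU were excluded. The fluorescence ratio sums target-cycle Cy3 intensity over buffer-cycle Cy3 intensity per cluster and averages it per switch-domain sequence.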
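Further: ATP exposure 15 min at 22 °C before imaging.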

Sequence	switch fluorescence ratio
TTTTAGTGCC	1.01 ± 0.04
TTTTAGTGTT	1 ± 0.013
TTTTAGTTAG	1.03 ± 0.058
TTTTATATGG	0.986 ± 0.021
TTTTATCGAG	0.9893 ± 0.0093
TTTTATCGGT	0.979 ± 0.012
TTTTATCTTT	1 ± 0.015
TTTTATGAG	0.999 ± 0.031
TTTTATGCGG	0.974 ± 0.019
TTTTATGCGT	0.993 ± 0.033
TTTTATGGCT	0.982 ± 0.04
TTTTATGGGA	0.9849 ± 0.0032
TTTTATGTAA	0.996 ± 0.032
TTTTATGTCT	0.976 ± 0.03
TTTTATGTG	1.01 ± 0.021
TTTTATGTTA	0.977 ± 0.032
TTTTATTGCA	0.96835 ± 0.00073
TTTTATTGGT	0.9738 ± 0.0075
TTTTATTTGT	0.985 ± 0.0089
TTTTCAACTA	0.9949 ± 0.0024
TTTTCACTTT	1.01 ± 0.046
TTTTCAGAAG	0.997 ± 0.013

Sequence	switch fluorescence ratio
TTTTCAGATT	0.9601 ± 0.0086
TTTTCAGGAA	1.018 ± 0.0092
TTTTCAGGGT	1.01 ± 0.025
TTTTCAGTTG	1.002 ± 0.0029
TTTTCATGCC	1.09 ± 0.056
TTTTCATTCG	1 ± 0.033
TTTTCATTTC	1.01 ± 0.012
TTTTCCCCCT	1.081 ± 0.0069
TTTTCCCCTC	1.64 ± 1
TTTTCCCGGA	1.013 ± 0.0028
TTTTCCGGCC	1.72 ± 0.54
TTTTCCGTGG	1.01 ± 0.069
TTTTCCTAAA	1.06 ± 0.11
TTTTCCTAAC	0.999 ± 0.071
TTTTCCTAGA	1.004 ± 0.0057
TTTTCCTAGT	1.12 ± 0.073
TTTTCCTGAG	1.04 ± 0.035
TTTTCCTTGT	1.08 ± 0.13
TTTTCGACGA	1.27 ± 0.3
TTTTCGCTTT	1.09 ± 0.17
TTTTCGGGTA	1.02 ± 0.0091
TTTTCGTCAA	2.86 ± 2.4

Sequence	switch fluorescence ratio
TTTTCGTCTC	1.02 ± 0.019
TTTTCGTGAA	1.01 ± 0.021
TTTTCGTGGT	0.984 ± 0.017
TTTTCGTTTG	1 ± 0.074
TTTTCTAAAT	1.04 ± 0.076
TTTTCTAGGG	1.01 ± 0.017
TTTTCTATCT	1.06 ± 0.057
TTTTCTATGG	1 ± 0.082
TTTTCTGGAA	1.01 ± 0.029
TTTTCTGTAT	1.03 ± 0.052
TTTTGAACGA	1.01 ± 0.035
TTTTGAAGAT	1.009 ± 0.01
TTTTGAAGGA	1.01 ± 0.027
TTTTGAAGTA	1.0186 ± 0.00093
TTTTGAATGG	1.02 ± 0.04
TTTTGAATTA	1.01 ± 0.032
TTTTGAGGCT	1.01 ± 0.073
TTTTGAGTAG	0.987 ± 0.021
TTTTGATCTT	0.991 ± 0.012
TTTTGATGCT	0.998 ± 0.057
TTTTGATGGG	0.981 ± 0.055
TTTTGATTGA	1.03 ± 0.034

Sequence	switch fluorescence ratio
TTTTGCAGCT	1 ± 0.019
TTTTGCATAT	1.26 ± 0.42
TTTTGCCATT	0.999 ± 0.035
TTTTGCCTAT	1 ± 0.025
TTTTGCGAAG	1.03 ± 0.027
TTTTGCTGCC	1.027 ± 0.002
TTTTGCTGGT	1 ± 0.027
TTTTGGAAAG	0.987 ± 0.013
TTTTGGACTC	1.007 ± 0.006
TTTTGGCCGG	1.05 ± 0.035
TTTTGGCGCG	1 ± 0.061
TTTTGGCTTT	1 ± 0.034
TTTTGGGAGT	1 ± 0.026
TTTTGGGCAT	1.04 ± 0.11
TTTTGGGGAA	1 ± 0.024
TTTTGGGGCC	1 ± 0.032
TTTTGGGGCG	1.04 ± 0.055
TTTTGGGTAA	1.01 ± 0.0051
TTTTGGTGTT	1.02 ± 0.036

Reference: the supplement of paper PMC10126150
